Consider 11 molecules from PMC5740674 (Proceedings of the National Academy of Sciences of the …, 2017).

First the molecules themselves.
B4: Mis12–Nnf1 complex (full-length Mis12 and full-length Nnf1) (complex, S. pombe)
chain 1: MLVELLEFTPLSFIDDVINITNQLLYKGVNGVDKAFSQTRFAKKAPQEIEEGLHKFEVLFESVVDRYYDGFEVYTLRNIFSYPPELKGYMRTFGKDVDYSITTEQDAAMDQAIQEAAEKLVVKMQLRRDLRMRLSRKREKKTEIEKHLERISFLNKVPENWQVTLPETTDFLLDQLGNLQHAVKRVVEASPTVHSREVDERITYLEKGYERLSNPIDQQKDFWSHHLSKLESTANTETANNIHKLLLSSEKDVGHTDEP
chain 2: MTSRKEQLDAFLSRTLSETIAHIPLEKFAQCFPSMKKGKVIAVIHQQLIEFFEKSCKQEYANLIKERDLNKKLDMLDECIHDAEFRKLHGESEVDISNKQPQEILKAHLYSHKRELLDKLNQDLLDIDKENEGLSTQIAGEEKATEDCISRMQSLIQKLEKTVYGMNEKNLAKEAHDTLNDLLPYIQNPSSTWTNALNEQGNIER

For experiment [1], the target named is T1, Mis12, full length (subunit of the Mis12–Nnf1 complex) (S. pombe, UniProt Q9Y738 1-259).
T1 sequence (looked up): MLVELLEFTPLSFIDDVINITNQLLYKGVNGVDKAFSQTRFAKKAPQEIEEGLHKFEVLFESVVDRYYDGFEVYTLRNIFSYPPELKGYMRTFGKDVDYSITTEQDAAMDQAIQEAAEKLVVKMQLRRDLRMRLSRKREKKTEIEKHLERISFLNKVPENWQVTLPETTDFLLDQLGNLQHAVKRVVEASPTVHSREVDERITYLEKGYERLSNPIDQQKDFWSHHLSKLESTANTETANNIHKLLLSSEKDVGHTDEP
As to the kind of experiment: SEC-MALS. For orientation: SEC sorts molecules by how far they enter the pores of the column.

The target of experiment [2] is B4. The experiment is described as follows: ITC. (In general: ITC needs no label: the signal is the heat of the interaction.)
In experiment [3] the target is B4. The experiment is described as follows: pull-down.
The target in experiment [4] is T2, GST-Cnp3(fl), full-length Cnp3 (S. pombe, UniProt Q9USR9 1-643).
T2 sequence (looked up): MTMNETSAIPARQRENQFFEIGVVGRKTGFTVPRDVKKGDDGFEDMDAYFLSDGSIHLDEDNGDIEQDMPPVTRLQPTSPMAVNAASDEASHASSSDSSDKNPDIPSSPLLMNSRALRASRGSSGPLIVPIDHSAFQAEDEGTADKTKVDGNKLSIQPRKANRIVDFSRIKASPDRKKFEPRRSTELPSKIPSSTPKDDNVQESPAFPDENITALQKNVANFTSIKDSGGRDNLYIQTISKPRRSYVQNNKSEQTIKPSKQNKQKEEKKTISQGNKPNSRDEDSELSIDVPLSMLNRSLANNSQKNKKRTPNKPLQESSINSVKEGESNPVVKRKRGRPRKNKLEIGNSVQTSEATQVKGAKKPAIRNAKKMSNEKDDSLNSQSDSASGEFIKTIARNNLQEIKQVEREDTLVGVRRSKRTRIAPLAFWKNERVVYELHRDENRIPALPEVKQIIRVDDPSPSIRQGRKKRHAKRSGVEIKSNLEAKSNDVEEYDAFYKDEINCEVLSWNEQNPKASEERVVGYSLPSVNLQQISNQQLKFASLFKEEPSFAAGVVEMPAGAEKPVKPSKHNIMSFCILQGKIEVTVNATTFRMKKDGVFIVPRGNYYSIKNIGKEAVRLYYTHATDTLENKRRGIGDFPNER
As to the kind of experiment: pull-down.

The target of experiment [5] is T3, Dsn1^DD–Nsl1 subcomplex (Dsn1 S68D S77D) (S. pombe, UniProt Q9UUB5 1-329; Q9P6M3 1-210, S68D | S77D).
T3 sequence (looked up) 1: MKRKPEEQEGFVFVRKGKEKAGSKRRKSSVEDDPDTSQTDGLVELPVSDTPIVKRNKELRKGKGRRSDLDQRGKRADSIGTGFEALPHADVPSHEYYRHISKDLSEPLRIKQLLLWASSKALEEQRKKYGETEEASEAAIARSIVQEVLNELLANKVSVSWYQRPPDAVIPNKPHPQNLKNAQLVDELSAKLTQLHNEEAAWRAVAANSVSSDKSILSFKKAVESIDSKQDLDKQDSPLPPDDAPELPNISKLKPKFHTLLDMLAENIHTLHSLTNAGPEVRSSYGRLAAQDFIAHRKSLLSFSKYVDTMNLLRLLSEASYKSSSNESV
T3 sequence (looked up) 2: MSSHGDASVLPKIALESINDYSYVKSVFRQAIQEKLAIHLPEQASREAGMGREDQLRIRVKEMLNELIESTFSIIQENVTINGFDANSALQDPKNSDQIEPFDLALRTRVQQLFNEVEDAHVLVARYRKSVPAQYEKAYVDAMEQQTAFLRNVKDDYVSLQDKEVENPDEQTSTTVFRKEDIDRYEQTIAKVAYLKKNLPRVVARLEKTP
As to the kind of experiment: SEC-MALS.

Experiment [6] addresses B4. As to the kind of experiment: SEC-MALS.

Square brackets hold non-standard residues; d marks the D form. Ends that are not written are not given here. pT = C[C@@H](OP(=O)(O)O)[C@H](N)C(=O)O

B1: Nnf1, full length, untagged (subunit of the Mis12–Nnf1 complex) (natural protein, S. pombe, UniProt Q09858 1-205, looked up)
chain: MTSRKEQLDAFLSRTLSETIAHIPLEKFAQCFPSMKKGKVIAVIHQQLIEFFEKSCKQEYANLIKERDLNKKLDMLDECIHDAEFRKLHGESEVDISNKQPQEILKAHLYSHKRELLDKLNQDLLDIDKENEGLSTQIAGEEKATEDCISRMQSLIQKLEKTVYGMNEKNLAKEAHDTLNDLLPYIQNPSSTWTNALNEQGNIER
For the molecule B1, the stoichiometry N (in general, the number of molecules, sites or subunits per partner or assembly) in experiment [1] is 1.

B2: Cnp3(26–52) peptide (peptide, UniProt Q9USR9 26-52, looked up)
peptide: RKTGFTVPRDVKKGDDGFEDMDAYFLS
B2: in experiment [2], binding was put at a Kd of 12.6 µM.

B3: GST-Cnp3(1–60)^WT (domain or fragment, S. pombe, UniProt Q9USR9 1-60, looked up)
chain: MTMNETSAIPARQRENQFFEIGVVGRKTGFTVPRDVKKGDDGFEDMDAYFLSDGSIHLDE
Turning to B3, the binding result in experiment [3] was “binds”.

In the case of B4, the binding result in experiment [4] and in experiment [5] was “binds” throughout.

B5: Mis12–Nnf1 complex with Mis12 R66A (complex, S. pombe)
chain 1: MLVELLEFTPLSFIDDVINITNQLLYKGVNGVDKAFSQTRFAKKAPQEIEEGLHKFEVLFESVVDAYYDGFEVYTLRNIFSYPPELKGYMRTFGKDVDYSITTEQDAAMDQAIQEAAEKLVVKMQLRRDLRMRLSRKREKKTEIEKHLERISFLNKVPENWQVTLPETTDFLLDQLGNLQHAVKRVVEASPTVHSREVDERITYLEKGYERLSNPIDQQKDFWSHHLSKLESTANTETANNIHKLLLSSEKDVGHTDEP
chain 2: MTSRKEQLDAFLSRTLSETIAHIPLEKFAQCFPSMKKGKVIAVIHQQLIEFFEKSCKQEYANLIKERDLNKKLDMLDECIHDAEFRKLHGESEVDISNKQPQEILKAHLYSHKRELLDKLNQDLLDIDKENEGLSTQIAGEEKATEDCISRMQSLIQKLEKTVYGMNEKNLAKEAHDTLNDLLPYIQNPSSTWTNALNEQGNIER
Consider B5, for which, in experiment [4], the binding result is “binds”.

B6: GST-Cnp3(1–155)^T28A (domain or fragment, S. pombe, UniProt Q9USR9 1-155, looked up)
chain: MTMNETSAIPARQRENQFFEIGVVGRKAGFTVPRDVKKGDDGFEDMDAYFLSDGSIHLDEDNGDIEQDMPPVTRLQPTSPMAVNAASDEASHASSSDSSDKNPDIPSSPLLMNSRALRASRGSSGPLIVPIDHSAFQAEDEGTADKTKVDGNKLS
Regarding B6, the binding result in experiment [3] is on record as “binds”.

B7: GST-Cnp3(26–50) (domain or fragment, S. pombe, UniProt Q9USR9 26-50, looked up)
chain: RKTGFTVPRDVKKGDDGFEDMDAYF
In the case of B7, the binding result in experiment [3] is given as “binds”.

B8: Mis12–Nnf1 complex with Mis12 Y67A (complex, S. pombe)
chain 1: MLVELLEFTPLSFIDDVINITNQLLYKGVNGVDKAFSQTRFAKKAPQEIEEGLHKFEVLFESVVDRAYDGFEVYTLRNIFSYPPELKGYMRTFGKDVDYSITTEQDAAMDQAIQEAAEKLVVKMQLRRDLRMRLSRKREKKTEIEKHLERISFLNKVPENWQVTLPETTDFLLDQLGNLQHAVKRVVEASPTVHSREVDERITYLEKGYERLSNPIDQQKDFWSHHLSKLESTANTETANNIHKLLLSSEKDVGHTDEP
chain 2: MTSRKEQLDAFLSRTLSETIAHIPLEKFAQCFPSMKKGKVIAVIHQQLIEFFEKSCKQEYANLIKERDLNKKLDMLDECIHDAEFRKLHGESEVDISNKQPQEILKAHLYSHKRELLDKLNQDLLDIDKENEGLSTQIAGEEKATEDCISRMQSLIQKLEKTVYGMNEKNLAKEAHDTLNDLLPYIQNPSSTWTNALNEQGNIER
For the molecule B8, the binding result in experiment [4] is given as “binds”.

B9: GST-Cnp3(1–155) (domain or fragment, S. pombe, UniProt Q9USR9 1-155, looked up)
chain: MTMNETSAIPARQRENQFFEIGVVGRKTGFTVPRDVKKGDDGFEDMDAYFLSDGSIHLDEDNGDIEQDMPPVTRLQPTSPMAVNAASDEASHASSSDSSDKNPDIPSSPLLMNSRALRASRGSSGPLIVPIDHSAFQAEDEGTADKTKVDGNKLS
As for B9, the binding result in experiment [3] is “binds”.

B10: Dsn1–Nsl1 subcomplex (complex, S. pombe)
chain 1: MKRKPEEQEGFVFVRKGKEKAGSKRRKSSVEDDPDTSQTDGLVELPVSDTPIVKRNKELRKGKGRRSSLDQRGKRASSIGTGFEALPHADVPSHEYYRHISKDLSEPLRIKQLLLWASSKALEEQRKKYGETEEASEAAIARSIVQEVLNELLANKVSVSWYQRPPDAVIPNKPHPQNLKNAQLVDELSAKLTQLHNEEAAWRAVAANSVSSDKSILSFKKAVESIDSKQDLDKQDSPLPPDDAPELPNISKLKPKFHTLLDMLAENIHTLHSLTNAGPEVRSSYGRLAAQDFIAHRKSLLSFSKYVDTMNLLRLLSEASYKSSSNESV
chain 2: MSSHGDASVLPKIALESINDYSYVKSVFRQAIQEKLAIHLPEQASREAGMGREDQLRIRVKEMLNELIESTFSIIQENVTINGFDANSALQDPKNSDQIEPFDLALRTRVQQLFNEVEDAHVLVARYRKSVPAQYEKAYVDAMEQQTAFLRNVKDDYVSLQDKEVENPDEQTSTTVFRKEDIDRYEQTIAKVAYLKKNLPRVVARLEKTP
For B10, in experiment [6], the “stoichiometry N” value was 1.

B11: Cnp3(26–52)^pT28 peptide (peptide, UniProt Q9USR9 26-52, looked up)
peptide: RK[pT]GFTVPRDVKKGDDGFEDMDAYFLS
On to B11, for which the Kd (usually the free concentration of one partner at which half of the binding sites on the other are occupied at equilibrium, for simple one-to-one binding) in experiment [2] is 92 µM.
